Numbering of substitutions follows the chain as printed. Names and notes keep the numbering of the source. Where two headings read alike, the source gives them in different places.
What was measured:
SEC [1] = biological target: the molecule itself; assay: SEC
SEC [2] = biological target: the molecule itself; assay: SEC; remark: listed apart in the source

B1: full-length IstB (AAA+ ATPase subunit of the Geobacillus stearothermophilus IS21 family member IS5376) (natural protein, UniProt Q45619 1-251, looked up)
chain: MKERIHEYCHRLHLPVMAERWSAMAEYASTHNISYSEFLFRLLEAEIVEKQARSIQTLIKLSKLPYRKTIDTFDFTAQPSVDERRIRELLTLSFIDRKENILFLGPPGIGKTHLAISIGMEAIARGYKTYFITAHDLVNQLRRADQEGKLEKKLRVFVKPTVLIIDEMGYLKLDPNSAHYLFQVIARRYEHAPIILTSNKSFGEWGEIVGDSVLATAMLDRLLHHSIIFNLKGESYRLREKRLQEEKQKDQ
B1 was tested, and the “stoichiometry N” value (SEC [1]) was 2.

B2: full-length IstB Walker-B mutant E167Q (natural protein, Geobacillus stearothermophilus, UniProt Q45619 1-251, looked up)
chain: B1 chain with E167Q
B2 was tested, and the “stoichiometry N” value (SEC [2]) was 2.

B3: full-length IstB sensor-II mutant R237A (natural protein, Geobacillus stearothermophilus, UniProt Q45619 1-251, looked up)
chain: B1 chain with R237A
With B3 the “stoichiometry N” value (SEC [2]) was 2.

B4: full-length IstB arginine finger mutant R221A (natural protein, Geobacillus stearothermophilus, UniProt Q45619 1-251, looked up)
chain: B1 chain with R221A
B4 was tested, and the “stoichiometry N” value (SEC [2]) was 2.

B5: full-length IstB Walker-A mutant K111A (natural protein, Geobacillus stearothermophilus, UniProt Q45619 1-251, looked up)
chain: B1 chain with K111A
For B5, the “stoichiometry N” value (SEC [2]) was 2.

Source: publication PMC4537775 (Cell, 2015)
